We go through four molecules from PMC4022879.

Where a chain is given by its changes, count along the chain named.

Sequences and labels used below:
B1: corn Hageman factor inhibitor (CHFI), control protein from Zea mays seeds (natural protein)
chain: SAGTSCVPGWAIPHNPLPSCRWYVTSRTCGIGPRLPWPELKRRCCRELADIPAYCRCTALSILMDGAIPPGPDAQLEGRLEDLPGCPREVQRGFAATLVTEAECNLATIS
B2: CHFI-1245, full-size CHFI with Cys29 substituted by Asp (natural protein)
chain: B1 chain with C29D
B3: CHFI-12345, recombinant full-size CHFI without any truncations (natural protein)
chain: B1 chain
B4: CHFI-2345 (domain or fragment)
chain: IPHNPLPSCRWYVTSRTCGIGPRLPWPELKRRCCRELADIPAYDRCTALSILMDGAIPPGPDAQLEGRLEDLPGCPREVQRGFAATLVTEAECNLATISGVAECPWILGGGTMPSK

The first test deals with activated coagulation factor XII (FXIIa). The experiment in a line: chromogenic enzyme inhibition assay; 1 nM FXIIa, 500 μM S2302, 37 °C, 110 mM Tris-HCl pH 8.0, 250 mM NaCl, 1% BSA; residual activity in triplicate at at least six inhibitor concentrations; Ki from a linear fit of 1/v against inhibitor concentration.
For orientation: Ki means the equilibrium dissociation constant of an inhibitor or competing ligand from its target. As to B1, the inhibition constant (Ki) came to 1 nM.
Regarding B2, the Ki was determined as 50 nM. This Ki is about 50-fold higher than that of the molecule before.
As for B3, the Ki was 1.1 nM. Against the preceding molecule, the Ki is about 45-fold lower.
Regarding B4, the Ki stood at 1 nM.

The target in another test is bovine pancreatic trypsin (bovine). The experiment in a line: chromogenic enzyme inhibition assay; 1 nM trypsin, 500 μM S2765, 37 °C, 110 mM Tris-HCl pH 8.0, 250 mM NaCl, 1% BSA; residual activity in triplicate at at least six inhibitor concentrations; Ki from a linear fit of 1/v against inhibitor concentration.
Chain of bovine pancreatic trypsin (bovine) (P00760 24-246): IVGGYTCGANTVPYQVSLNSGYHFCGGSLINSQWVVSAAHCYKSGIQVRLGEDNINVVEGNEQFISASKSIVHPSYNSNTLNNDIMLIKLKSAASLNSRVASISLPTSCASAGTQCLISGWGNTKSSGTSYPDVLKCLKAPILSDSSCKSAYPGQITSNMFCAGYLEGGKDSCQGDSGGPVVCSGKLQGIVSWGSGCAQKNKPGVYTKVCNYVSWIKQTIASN
B1 returned a Ki of 2.1 nM.
In the case of B2, the Ki was determined as 250 nM.
Same read-out and setting: the value for B3 was 1.3 nM; that for B4 was 2.9 nM.
